Measured values taken from patent US20250262210A1 (TRUSTEES OF COLUMBIA UNIVERSITY IN THE CITY OF NEW YORK, published 2025).

Legend:
Experiment in all cases: IP/MS, LZTR1 R810W-FLAG, U87
[1] = biological target: PTPN23 (human, UniProt Q9H3S7 1-1636)
Procedure, shortened: (§1)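 Gel slices were reduced with 5 mM DTT, alkylated with 11 mM IAA and digested overnight at 37° C. with trypsin. Peptides were analysed on an Orbitrap Fusion Tribrid by LC-MS/MS.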

[2] = biological target: PEAK1 (human, UniProt Q9H792 1-1746)
Procedure, shortened: as §1

[3] = biological target: ARFGEF1 (human, UniProt Q9Y6D6 1-1849)
Procedure, shortened: as §1

[4] = biological target: CDK5RAP2 (human, UniProt Q96SN8 1-1893, limits assumed)
Procedure, shortened: as §1

[5] = biological target: T1, GTF3C2 (human, UniProt Q8WUA4 1-911, limits assumed)
T1 sequence (looked up): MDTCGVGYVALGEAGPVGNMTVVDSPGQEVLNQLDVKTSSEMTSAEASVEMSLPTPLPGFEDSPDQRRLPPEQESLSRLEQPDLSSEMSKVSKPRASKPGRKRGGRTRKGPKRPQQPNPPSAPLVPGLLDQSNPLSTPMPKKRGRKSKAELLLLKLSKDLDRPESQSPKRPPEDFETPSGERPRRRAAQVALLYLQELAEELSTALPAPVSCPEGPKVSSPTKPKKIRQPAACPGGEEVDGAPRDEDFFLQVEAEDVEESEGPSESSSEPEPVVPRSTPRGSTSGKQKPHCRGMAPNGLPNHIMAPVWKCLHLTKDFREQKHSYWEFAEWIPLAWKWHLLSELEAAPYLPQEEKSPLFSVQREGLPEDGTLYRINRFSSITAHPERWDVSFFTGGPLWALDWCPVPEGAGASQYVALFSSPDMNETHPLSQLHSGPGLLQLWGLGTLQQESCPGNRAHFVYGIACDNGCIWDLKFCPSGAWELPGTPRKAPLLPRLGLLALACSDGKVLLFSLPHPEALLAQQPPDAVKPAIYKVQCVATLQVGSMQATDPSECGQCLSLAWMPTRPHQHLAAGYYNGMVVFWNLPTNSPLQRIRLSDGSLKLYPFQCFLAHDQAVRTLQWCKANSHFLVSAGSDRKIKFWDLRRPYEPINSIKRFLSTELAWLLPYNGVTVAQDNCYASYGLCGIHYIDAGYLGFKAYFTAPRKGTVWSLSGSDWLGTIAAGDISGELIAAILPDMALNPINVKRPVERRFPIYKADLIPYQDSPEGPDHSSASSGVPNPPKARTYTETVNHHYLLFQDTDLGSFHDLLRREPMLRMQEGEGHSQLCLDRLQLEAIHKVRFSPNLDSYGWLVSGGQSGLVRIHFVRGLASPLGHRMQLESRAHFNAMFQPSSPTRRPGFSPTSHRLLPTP
Procedure, shortened: as §1

[6] = biological target: ARHGAP31 (human, UniProt Q2M1Z3 1-1444)
Procedure, shortened: as §1

[7] = biological target: TRRAP (human, UniProt Q9Y4A5 2-3859, limits assumed)
Procedure, shortened: as §1

[8] = biological target: RICTOR (human, UniProt Q6R327 1-1708, limits assumed)
Procedure, shortened: as §1

[9] = biological target: TUBGCP2 (human, UniProt Q9BSJ2 1-902, limits assumed)
Procedure, shortened: as §1

Measured: binding result

Sequence of RICTOR (Q6R327 whole entry): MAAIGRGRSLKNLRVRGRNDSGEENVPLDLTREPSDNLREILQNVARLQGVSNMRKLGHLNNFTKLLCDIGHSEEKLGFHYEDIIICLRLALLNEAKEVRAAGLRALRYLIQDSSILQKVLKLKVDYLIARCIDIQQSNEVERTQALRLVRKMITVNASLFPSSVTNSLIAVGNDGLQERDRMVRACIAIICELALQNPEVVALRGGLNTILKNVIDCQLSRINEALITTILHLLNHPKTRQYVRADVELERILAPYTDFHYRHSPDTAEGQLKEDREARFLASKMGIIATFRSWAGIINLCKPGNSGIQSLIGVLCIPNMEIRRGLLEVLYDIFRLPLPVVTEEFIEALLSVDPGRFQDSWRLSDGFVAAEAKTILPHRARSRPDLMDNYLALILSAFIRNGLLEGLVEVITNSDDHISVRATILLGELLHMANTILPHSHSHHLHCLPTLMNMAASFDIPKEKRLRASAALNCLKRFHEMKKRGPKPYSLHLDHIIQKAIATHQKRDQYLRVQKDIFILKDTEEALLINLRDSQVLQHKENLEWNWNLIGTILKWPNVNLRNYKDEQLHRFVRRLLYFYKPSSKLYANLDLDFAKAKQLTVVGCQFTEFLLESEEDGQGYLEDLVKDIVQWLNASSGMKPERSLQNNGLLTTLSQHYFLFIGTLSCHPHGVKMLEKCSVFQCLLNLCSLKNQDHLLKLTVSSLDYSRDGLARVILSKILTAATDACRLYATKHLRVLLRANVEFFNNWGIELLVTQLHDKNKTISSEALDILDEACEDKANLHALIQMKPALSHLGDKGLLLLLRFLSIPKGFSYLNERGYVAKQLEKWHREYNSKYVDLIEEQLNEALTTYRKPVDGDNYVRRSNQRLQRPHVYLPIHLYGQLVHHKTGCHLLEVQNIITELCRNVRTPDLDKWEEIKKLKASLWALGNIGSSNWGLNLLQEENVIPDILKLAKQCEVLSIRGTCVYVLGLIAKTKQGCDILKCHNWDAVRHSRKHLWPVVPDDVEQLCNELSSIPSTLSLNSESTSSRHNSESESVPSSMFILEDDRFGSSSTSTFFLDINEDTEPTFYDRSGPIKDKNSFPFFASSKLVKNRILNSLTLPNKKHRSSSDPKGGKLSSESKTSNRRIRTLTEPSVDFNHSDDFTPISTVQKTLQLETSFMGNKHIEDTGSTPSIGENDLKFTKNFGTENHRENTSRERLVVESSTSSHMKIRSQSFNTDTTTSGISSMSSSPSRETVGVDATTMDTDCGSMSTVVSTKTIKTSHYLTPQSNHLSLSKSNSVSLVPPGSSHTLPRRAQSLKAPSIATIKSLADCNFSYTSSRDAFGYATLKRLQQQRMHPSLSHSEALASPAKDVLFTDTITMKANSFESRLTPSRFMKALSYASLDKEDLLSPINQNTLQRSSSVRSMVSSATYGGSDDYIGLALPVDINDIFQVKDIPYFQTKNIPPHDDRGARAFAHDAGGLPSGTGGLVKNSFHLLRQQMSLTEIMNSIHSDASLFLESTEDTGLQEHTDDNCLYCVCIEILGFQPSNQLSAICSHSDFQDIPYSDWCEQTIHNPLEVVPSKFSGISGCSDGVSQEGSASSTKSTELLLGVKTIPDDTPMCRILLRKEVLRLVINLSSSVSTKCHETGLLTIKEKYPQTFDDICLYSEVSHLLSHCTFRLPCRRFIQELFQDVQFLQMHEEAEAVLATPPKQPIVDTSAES
Sequence of CDK5RAP2 (Q96SN8 whole entry): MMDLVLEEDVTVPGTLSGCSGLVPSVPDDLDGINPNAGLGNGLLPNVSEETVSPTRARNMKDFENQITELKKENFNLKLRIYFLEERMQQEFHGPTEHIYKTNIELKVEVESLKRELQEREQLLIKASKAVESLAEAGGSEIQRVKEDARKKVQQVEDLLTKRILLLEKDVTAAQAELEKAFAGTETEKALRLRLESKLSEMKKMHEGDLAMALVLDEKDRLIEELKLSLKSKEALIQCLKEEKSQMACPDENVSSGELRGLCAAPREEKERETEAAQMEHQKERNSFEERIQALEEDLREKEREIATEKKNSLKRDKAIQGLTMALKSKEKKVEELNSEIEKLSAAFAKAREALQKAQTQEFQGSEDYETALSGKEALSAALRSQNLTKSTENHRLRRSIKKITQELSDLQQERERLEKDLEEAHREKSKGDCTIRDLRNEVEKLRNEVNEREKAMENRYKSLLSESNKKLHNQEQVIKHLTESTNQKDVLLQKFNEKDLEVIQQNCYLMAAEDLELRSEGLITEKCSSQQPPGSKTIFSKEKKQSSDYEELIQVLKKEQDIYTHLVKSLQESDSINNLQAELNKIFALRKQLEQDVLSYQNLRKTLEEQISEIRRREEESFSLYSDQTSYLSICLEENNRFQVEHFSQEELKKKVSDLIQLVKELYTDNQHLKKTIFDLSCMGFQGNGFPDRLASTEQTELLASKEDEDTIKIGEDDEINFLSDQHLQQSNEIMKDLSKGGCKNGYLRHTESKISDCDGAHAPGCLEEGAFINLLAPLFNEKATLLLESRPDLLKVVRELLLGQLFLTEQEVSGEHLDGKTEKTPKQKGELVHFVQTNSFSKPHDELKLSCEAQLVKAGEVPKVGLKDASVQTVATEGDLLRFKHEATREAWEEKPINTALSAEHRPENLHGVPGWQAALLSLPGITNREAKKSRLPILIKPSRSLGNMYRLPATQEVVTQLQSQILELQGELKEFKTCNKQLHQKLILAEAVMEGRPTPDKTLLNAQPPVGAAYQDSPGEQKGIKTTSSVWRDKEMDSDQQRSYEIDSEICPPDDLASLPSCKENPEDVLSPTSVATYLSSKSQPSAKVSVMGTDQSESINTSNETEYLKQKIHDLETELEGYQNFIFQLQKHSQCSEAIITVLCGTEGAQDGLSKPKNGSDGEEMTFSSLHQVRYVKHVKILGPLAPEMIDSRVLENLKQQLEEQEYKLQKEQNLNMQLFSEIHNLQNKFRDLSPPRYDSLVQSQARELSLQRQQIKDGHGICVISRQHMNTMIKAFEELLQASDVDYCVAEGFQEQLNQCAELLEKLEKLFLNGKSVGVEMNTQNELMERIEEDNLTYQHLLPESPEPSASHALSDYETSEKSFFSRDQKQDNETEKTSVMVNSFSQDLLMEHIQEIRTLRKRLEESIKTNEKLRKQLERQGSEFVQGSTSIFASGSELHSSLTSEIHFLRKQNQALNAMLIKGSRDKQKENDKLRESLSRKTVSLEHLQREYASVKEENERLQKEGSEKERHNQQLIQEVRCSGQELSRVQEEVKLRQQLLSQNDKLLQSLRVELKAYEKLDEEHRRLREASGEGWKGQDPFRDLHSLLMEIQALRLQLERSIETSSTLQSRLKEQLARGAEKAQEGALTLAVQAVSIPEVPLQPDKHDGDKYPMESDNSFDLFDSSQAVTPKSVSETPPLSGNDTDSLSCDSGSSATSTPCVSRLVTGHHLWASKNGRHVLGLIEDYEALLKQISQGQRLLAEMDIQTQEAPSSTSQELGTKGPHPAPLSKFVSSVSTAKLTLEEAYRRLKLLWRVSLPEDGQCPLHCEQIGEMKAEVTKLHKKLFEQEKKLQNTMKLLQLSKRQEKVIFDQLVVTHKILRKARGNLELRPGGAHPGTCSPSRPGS
Sequence of ARHGAP31 (Q2M1Z3 whole entry): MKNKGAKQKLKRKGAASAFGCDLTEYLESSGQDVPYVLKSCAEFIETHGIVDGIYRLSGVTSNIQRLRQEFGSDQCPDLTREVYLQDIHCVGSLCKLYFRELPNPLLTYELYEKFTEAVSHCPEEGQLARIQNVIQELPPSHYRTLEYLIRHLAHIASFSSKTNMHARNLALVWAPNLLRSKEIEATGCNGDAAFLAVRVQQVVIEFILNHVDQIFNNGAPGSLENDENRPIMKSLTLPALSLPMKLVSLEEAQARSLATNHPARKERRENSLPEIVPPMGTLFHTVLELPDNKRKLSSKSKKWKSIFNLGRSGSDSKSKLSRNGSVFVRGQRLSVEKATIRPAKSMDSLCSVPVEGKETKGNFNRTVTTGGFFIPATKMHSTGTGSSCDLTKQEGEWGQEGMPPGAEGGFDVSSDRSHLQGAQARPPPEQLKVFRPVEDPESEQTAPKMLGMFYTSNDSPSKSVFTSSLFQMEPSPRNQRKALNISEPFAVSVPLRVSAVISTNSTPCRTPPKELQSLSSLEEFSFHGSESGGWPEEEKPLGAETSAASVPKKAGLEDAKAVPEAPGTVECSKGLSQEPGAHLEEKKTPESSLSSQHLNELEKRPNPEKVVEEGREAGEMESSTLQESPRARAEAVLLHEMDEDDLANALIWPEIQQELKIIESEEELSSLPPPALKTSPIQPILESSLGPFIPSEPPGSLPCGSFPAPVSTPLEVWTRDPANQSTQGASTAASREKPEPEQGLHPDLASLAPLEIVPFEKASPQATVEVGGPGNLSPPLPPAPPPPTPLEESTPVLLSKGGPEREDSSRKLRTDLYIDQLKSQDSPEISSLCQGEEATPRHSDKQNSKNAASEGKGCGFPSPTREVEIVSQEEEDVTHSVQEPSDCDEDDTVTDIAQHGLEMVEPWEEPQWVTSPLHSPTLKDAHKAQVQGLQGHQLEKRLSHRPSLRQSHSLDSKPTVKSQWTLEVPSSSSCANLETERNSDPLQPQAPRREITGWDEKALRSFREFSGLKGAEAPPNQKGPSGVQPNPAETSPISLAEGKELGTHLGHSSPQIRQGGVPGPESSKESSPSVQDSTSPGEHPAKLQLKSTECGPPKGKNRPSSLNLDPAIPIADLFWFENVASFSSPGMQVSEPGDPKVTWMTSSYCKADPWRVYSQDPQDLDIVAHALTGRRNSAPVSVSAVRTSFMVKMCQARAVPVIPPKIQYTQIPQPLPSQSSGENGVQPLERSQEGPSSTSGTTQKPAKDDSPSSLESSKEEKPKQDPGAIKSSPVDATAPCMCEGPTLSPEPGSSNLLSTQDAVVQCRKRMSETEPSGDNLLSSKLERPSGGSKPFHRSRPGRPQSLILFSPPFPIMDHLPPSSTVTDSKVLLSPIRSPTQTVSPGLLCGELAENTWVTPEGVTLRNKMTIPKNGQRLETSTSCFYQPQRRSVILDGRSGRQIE

B1: LZTR1 R810W-FLAG (other, human, UniProt Q8N653 1-840, looked up)
chain: MAGPGSTGGQIGAAALAGGARSKVAPSVDFDHSCSDSVEYLTLNFGPFETVHRWRRLPPCDEFVGARRSKHTVVAYKDAIYVFGGDNGKTMLNDLLRFDVKDCSWCRAFTTGTPPAPRYHHSAVVYGSSMFVFGGYTGDIYSNSNLKNKNDLFEYKFATGQWTEWKIEGRLPVARSAHGATVYSDKLWIFAGYDGNARLNDMWTIGLQDRELTCWEEVAQSGEIPPSCCNFPVAVCRDKMFVFSGQSGAKITNNLFQFEFKDKTWTRIPTEHLLRGSPPPPQRRYGHTMVAFDRHLYVFGGAADNTLPNELHCYDVDFQTWEVVQPSSDSEVGGAEVPERACASEEVPTLTYEERVGFKKSRDVFGLDFGTTSAKQPTQPASELPSGRLFHAAAVISDAMYIFGGTVDNNIRSGEMYRFQFSCYPKCTLHEDYGRLWESRQFCDVEFVLGEKEECVQGHVAIVTARSRWLRRKITQARERLAQKLEQEAAPVPREAPGVAAGGARPPLLHVAIREAEARPFEVLMQFLYTDKIKYPRKGHVEDVLLIMDVYKLALSFQLCRLEQLCRQYIEASVDLQNVLVVCESAARLQLSQLKEHCLNFVVKESHFNQVIMMKEFERLSSPLIVEIVRRKQQPPPRTPLDQPVDIGTSLIQDMKAYLEGAGAEFCDITLLLDGHPRPAHKAILAARSSYFEAMFRSFMPEDGQVNISIGEMVPSRQAFESMLRYIYYGEVNMPPEDSLYLFAAPYYYGFYNNRLQAYCKQNLEMNVTVQNVLQILEAADKTQALDMKRHCLHIIVHQFTKVSKLPTLWSLSQQLLLDIIDSLASHISDKQCAELGADI
notes: Stably expressed in U87 cells by lentivirus; also called LZTR1-FLAG-R810W; LZTR1 RW; not shown: FLAG tag
binds: [1] | [2] | [3] | [4] | [5] | [6] | [7] | [8] | [9]
